We go through 2 molecules from US12187807B2, “Antibody molecules to C5AR1 and uses thereof” (Visterra, Inc., priority 2020, dated 2025).

Experiment [1] has as its target T1, biotinylated peptide representing the N-terminus of C5aR1 with tyrosine sulfation (Homo sapiens, UniProt P21730).
T1 construct: the N-terminus with tyrosine sulfation
T1 sequence (P21730 1-37): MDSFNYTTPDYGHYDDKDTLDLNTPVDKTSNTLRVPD
Put plainly: Epitope mapping by biolayer interferometry, N-terminus with tyrosine sulfation. The experiment is classed as binding. Further details: key: “+” indicates binding to the listed peptide; “−” indicates lack of binding to the listed peptide. The settings on record: 10 μg/mL of antibody, biotinylated peptide on streptavidin biosensor. The procedure:
(§1) The epitope mapping was undertaken, using biolayer interferometry, on a series of exemplary anti-C5aR1 antibodies generated as described in Example 1. Briefly, for each antibody, biotinylated peptides representing ECL2, the N-terminus with tyrosine sulfation, and the N-terminus without tyrosine sulfation, were immobilized in a streptavidin biosensor. Subsequently, the biosensor was exposed to 10 μg/mL of antibody to detect antibody binding to the immobilized peptide. The results of the epitope mapping study are shown in Table 4 (“+” indicates binding to the listed peptide; “−” indicates lack of binding to the listed peptide).
(In general: BLI is a label-free optical method that tracks binding on a fibre tip over time.)

Experiment [2] has as its target T2, biotinylated peptide representing ECL2 of C5aR1 (Homo sapiens, UniProt P21730).
T2 construct: cyclic ECL2 peptide spanning from residues R175 to C188
Put plainly: Epitope mapping by biolayer interferometry, ECL2 peptide. The experiment is classed as binding. More on the design: key: “+” indicates binding to the listed peptide; “−” indicates lack of binding to the listed peptide. The settings on record: biolayer interferometry, 10 μg/mL of antibody, biotinylated peptide on streptavidin biosensor. The procedure: as §1

Experiment [3] has as its target T3, biotinylated peptide representing the N-terminus of C5aR1 without tyrosine sulfation (Homo sapiens, UniProt P21730).
T3 construct: the N-terminus without tyrosine sulfation
T3 sequence (P21730 1-37 limits assumed): T1 sequence (P21730 1-37)
In words: Epitope mapping by biolayer interferometry, N-terminus without tyrosine sulfation. The experiment is classed as binding. More on the design: key: “+” indicates binding to the listed peptide; “−” indicates lack of binding to the listed peptide. The settings on record: 10 μg/mL of antibody, biotinylated peptide on streptavidin biosensor. The procedure:
as §1

In a further experiment the target is T4, C5aR1 (Homo sapiens, UniProt P21730).
T4 sequence (P21730 1-350): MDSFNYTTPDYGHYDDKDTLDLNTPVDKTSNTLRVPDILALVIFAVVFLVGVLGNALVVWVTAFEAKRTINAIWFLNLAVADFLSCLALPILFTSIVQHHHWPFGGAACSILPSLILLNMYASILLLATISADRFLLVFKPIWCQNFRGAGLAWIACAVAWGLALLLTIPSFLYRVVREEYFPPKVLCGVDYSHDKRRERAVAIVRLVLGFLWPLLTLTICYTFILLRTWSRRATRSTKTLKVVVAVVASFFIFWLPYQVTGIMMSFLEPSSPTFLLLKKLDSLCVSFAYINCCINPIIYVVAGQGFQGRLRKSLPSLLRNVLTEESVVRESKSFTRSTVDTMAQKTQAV
In words: GeneBLAzer reporter assay (C5aR1 mediated Gα signaling). The experiment is classed as cell-based. Further details: host or cells: vendor's C5aR1 GeneBLAzer reporter cell line. The settings on record: 10 nM of antibody, 10 nM C5a. The procedure:
In addition, a GeneBLAzer reporter assay was used, which mimics the calcium flux assay. The GeneBLAzer assay kit and C5aR1 cell line were commercially available from Thermo Fisher (Catalog #K1544). The assay was performed as recommend by the manufacturer. Briefly, antibodies or antagonists were incubated for 30 minutes at 37° C. C5a was then added to the cells and incubated at 37° C. for an additional 4-5 hours. Beta-lactamase substrate was then added and incubated for 2 hours at room temperature. Fluorescent measurements for each well with an excitation/emission of 409/460 (blue) and 409/530 (green) were measured. An increase in the blue to green ratio was proportional to C5aR1 activation and was used to calculate the percent of activation for the cells in each well.
Exemplary anti-C5aR1 antibodies generated as described in Example 1 were screened for antagonist activity against human C5aR1 using the GeneBLAzer assay, as described in Example 1. Briefly, cells were pre-incubated with 10 nM of antibody followed by addition of 10 nM C5a. The engineered induction of beta-lactamase expression by C5a-C5aR1 signaling was measured using the BLA substrate and calculating the ratio of blue and green fluorescence.
(In general: Reporter assays use an easily measured gene product as a stand-in for the process of interest.)

B1: clone 336v2-1: exemplary anti-C5aR1 antibody, Table 1C (antibody, V domains shown)
VH: QVQLKQSGPGLVQSSQSLSITCTVSGFSLISYGVHWVRQSPGKGLEWLGVIWSGGSTDYNAAFKSRLSITKDNSKSQVFFKMNSLQADDTAIYYCAKNSQLGNAMDYWGQGTTVTVSS
VL: DIVMSQSPSSLAVSAGEKVTMSCKSSQSLLSSRTRKNYLAWYQQKPGQSPKLLIYWASTRESGVPDRFTGSGSGTDFTLTISSVQAEDLALYFCNQSYDLLTFGAGTKLEIK
As to B1, in experiment [1], the “Binding to Sulfated N-terminal peptide” value is given as “−”. Also, the “Binding to Cyclic ECL2 peptide” value in experiment [2] is “+”. For the same molecule, the “Binding to Non-sulfated N-terminal peptide” value in experiment [3] was “−”.

B2: clone 322: anti-C5aR1 Site I antibody; VH SEQ ID NO: 491, VL SEQ ID NO: 551 (antibody, V domains shown)
VH: QVQLQQSDAALVKPGASVKISCKASGHTFTDHAIHWVKQRPEQGLEWIGYISPGNGDIKYNDKFKGKATLTADKSSSTAYMQLNSLTPEDSAVYFCKGPLFVRGQYYITMDYWGQGTTVTVSS
VL: DIVMTQSQKFMSTTVGDRVSITCKASQNVGAAVVWYQQKPGQSPKLLIYSASYRYSGVPDRFTGSGSGTDFTLTISNMQSEDLADYFCQQYNSFPLTFGGGTKLEIK
B2: the “antagonism of C5aR1 compared to reference antibodies or to Avacopan” value with C5aR1 is “comparable”.
